From publication PMC5771398, “Structural basis for assembly of the CBF3 kinetochore complex” (The EMBO Journal, 2017)

Biological target: T1, Cep3-Ctf13-Skp1 core complex (S. cerevisiae, UniProt P40969 1-608; P35203 1-478; P52286 1-194, four phosphorylations (intact mass spectrometry); sites not given)
T1 construct: Cep3, budding yeast, full length; Ctf13, budding yeast, full length; Skp1, budding yeast, full length; Core complex as it stood in size-exclusion chromatography with Ndc10 or the Ndc10 NTD (tag cleaved); also called CBF3 core complex; coreWT; source: S. cerevisiae, co-expressed, purified (Strep-Trap, heparin, TEV, anion exchange, SEC); not shown: double-StrepTactin tag, C-terminal, cleaved; …
Assay: SEC; Superose 6 in 10 mM HEPES, 300 mM NaCl, 1 mM DTT; core and Ndc10 separated on heparin and combined, tag cleaved; stoichiometry judged by band intensities on SDS-PAGE/Coomassie
Settings: both partners purified

T1 sequence (P40969 whole entry, chain 1 of 3): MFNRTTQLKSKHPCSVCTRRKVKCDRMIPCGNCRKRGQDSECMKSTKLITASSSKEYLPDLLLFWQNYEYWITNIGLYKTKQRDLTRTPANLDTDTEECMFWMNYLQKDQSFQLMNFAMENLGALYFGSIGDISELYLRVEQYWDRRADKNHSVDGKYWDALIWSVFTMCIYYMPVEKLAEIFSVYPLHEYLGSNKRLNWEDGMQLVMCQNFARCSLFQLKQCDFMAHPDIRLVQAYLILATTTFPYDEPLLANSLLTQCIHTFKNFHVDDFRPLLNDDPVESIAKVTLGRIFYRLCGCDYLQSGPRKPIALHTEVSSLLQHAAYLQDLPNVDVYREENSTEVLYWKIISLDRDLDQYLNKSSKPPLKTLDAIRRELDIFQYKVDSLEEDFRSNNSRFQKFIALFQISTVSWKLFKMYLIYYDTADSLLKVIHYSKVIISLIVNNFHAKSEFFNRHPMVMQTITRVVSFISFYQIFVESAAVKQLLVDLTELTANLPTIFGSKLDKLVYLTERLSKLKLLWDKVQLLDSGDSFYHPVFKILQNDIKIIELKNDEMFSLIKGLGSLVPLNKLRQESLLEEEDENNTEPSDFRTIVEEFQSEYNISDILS
T1 sequence (P35203 whole entry, chain 2 of 3): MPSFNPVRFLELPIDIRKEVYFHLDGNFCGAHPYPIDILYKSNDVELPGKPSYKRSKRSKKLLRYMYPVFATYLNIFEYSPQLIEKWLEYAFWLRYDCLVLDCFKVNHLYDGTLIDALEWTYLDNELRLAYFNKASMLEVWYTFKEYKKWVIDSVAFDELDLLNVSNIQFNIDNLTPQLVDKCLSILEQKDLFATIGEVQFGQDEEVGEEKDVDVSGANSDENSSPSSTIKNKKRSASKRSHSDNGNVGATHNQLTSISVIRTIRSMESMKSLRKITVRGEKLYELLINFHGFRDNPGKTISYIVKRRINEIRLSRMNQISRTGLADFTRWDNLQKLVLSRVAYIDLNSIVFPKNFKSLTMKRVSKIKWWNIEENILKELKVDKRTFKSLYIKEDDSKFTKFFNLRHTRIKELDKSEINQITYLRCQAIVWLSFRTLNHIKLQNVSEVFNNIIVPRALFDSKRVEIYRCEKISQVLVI
T1 sequence (P52286 whole entry, chain 3 of 3): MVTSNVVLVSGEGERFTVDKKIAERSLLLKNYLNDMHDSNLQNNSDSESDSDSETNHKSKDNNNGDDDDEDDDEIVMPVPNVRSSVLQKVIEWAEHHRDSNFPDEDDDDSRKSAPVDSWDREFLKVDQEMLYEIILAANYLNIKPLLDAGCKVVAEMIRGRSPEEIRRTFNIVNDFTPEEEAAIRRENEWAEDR

B1: Ndc10 (natural protein, S. cerevisiae, UniProt P32504 1-956, looked up)
chain: MRSSILFLLKLMKIMDVQQQQEAMSSEDRFQELVDSLKPRTAHQYKTYYTKYIQWCQLNQIIPTPEDNSVNSVPYKDLPISAELIHWFLLDTLITDDKPGEKREETEDLDEEEENSFKIATLKKIIGSLNFLSKLCKVHENPNANIDTKYLESVTKLHTHWIDSQKAITTNETNNTNTQVLCPPLLKVSLNLWNPETNHLSEKFFKTCSEKLRFLVDFQLRSYLNLSFEERSKIRFGSLKLGKRDRDAIIYHKVTHSAEKKDTPGHHQLLALLPQDCPFICPQTTLAAYLYLRFYGIPSVSKGDGFPNLNADENGSLLQDIPILRGKSLTTYPREETFSNYYTTVFRYCHLPYKRREYFNKCNLVYPTWDEDTFRTFFNEENHGNWLEQPEAFAFPDKIPFDFKKIMNFKSPYTSYSTNAKKDPFPPPKDLLVQIFPEIDEYKRHDYEGLSQNSRDFLDLMEVLRERFLSNLPWIYKFFPNHDIFQDPIFGNSDFQSYFNDKTIHSKGSPILSFDILPGFNKIYKNKTNFYSLLIERPSQLTFASSHNPDTHPTQKQESEGPLQMSQLDTTQLNELLKQQSFEYVQFQTLSNFQILLSVFNKIFEKLEMKKSSRGYILHQLNLFKITLDERIKKSKIDDADKFIRDNQPIKKEENIVNEDGPNTSRRTKRPKQIRLLSIADSSDESSTEDSNVFKKDGESIEDGAYGENEDENDSEMQEQLKSMINELINSKISTFLRDQMDQFELKINALLDKILEEKVTRIIEQKLGSHTGKFSTLKRPQLYMTEEHNVGFDMEVPKKLRTSGKYAETVKDNDDHQAMSTTASPSPEQDQEAKSYTDEQEFMLDKSIDSIEGIILEWFTPNAKYANQCVHSMNKSGNKSWRANCEALYKERKSIVEFYIYLVNHESLDRYKAVDICEKLRDQNEGSFSRLAKFLRKWRHDHQNSFDGLLVYLSN
notes: synthetic gene codon-optimised for S. cerevisiae; also called full-length Ndc10; source: S. cerevisiae, co-expressed with the other CBF3 subunits and Sgt1; in lysate (pull-down) and purified (heparin, anion exchange, SEC)
stoichiometry N: 2
